The values below come from paper PMC8317200 (Journal of medicinal chemistry, 2020).

Test [1] concerns the target T1, FGF14:Nav1.6 complex (Homo sapiens, UniProt Q92915).
T1 sequence (Q92915 1-252 isoform Q92915-2): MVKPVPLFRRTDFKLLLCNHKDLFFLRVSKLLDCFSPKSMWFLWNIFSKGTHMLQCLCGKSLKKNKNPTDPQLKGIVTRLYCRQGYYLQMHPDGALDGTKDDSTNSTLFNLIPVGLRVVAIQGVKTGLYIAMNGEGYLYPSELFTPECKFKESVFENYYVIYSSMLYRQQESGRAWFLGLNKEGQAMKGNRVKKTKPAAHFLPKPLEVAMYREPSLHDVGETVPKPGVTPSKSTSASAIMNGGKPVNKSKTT
Briefly: Split-luciferase complementation assay. The class given is cell-based. The note with it: for activity at 50 µM: HEK293, 1 h, read-out: RLVs (%); for Inhibitory activity against FGF14:Nav1.6 complex assembly (in words): 50 μM screening.

The target of test [2] is T2, FGF14 (Homo sapiens, UniProt Q92915).
T2 sequence (Q92915 64-252 isoform Q92915-2): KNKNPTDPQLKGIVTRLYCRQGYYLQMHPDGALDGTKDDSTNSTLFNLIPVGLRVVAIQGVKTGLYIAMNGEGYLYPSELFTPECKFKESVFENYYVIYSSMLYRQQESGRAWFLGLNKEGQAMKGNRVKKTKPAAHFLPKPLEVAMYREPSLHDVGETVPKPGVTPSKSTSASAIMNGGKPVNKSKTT
The experiment in a line: Surface plasmon resonance. Format: binding. To be noted: for koff: read-out: koff FGF14; for kon: read-out: kon FGF14. Background: In SPR one partner is held on a chip, and binding of the other changes the refractive index at the surface.

The target in test [3] is T3, CLuc-FGF14-1b (human) (UniProt Q92915).
T3 sequence: T1 sequence (Q92915 1-252 isoform Q92915-2)
Briefly: split reporter.

Residues, ends and D or L forms follow the SMILES beside them. *: point of attachment. Adamantane1carbonyl = O=C(C12CC3CC(CC(C3)C1)C2)*; Fmoc = O=C(OCC1c2ccccc2-c2ccccc21)*; Benzoyl(4-F) = O=C(c1ccc(F)cc1)*; Pyrrolidide = C1CCN(*)C1; Cbz = O=C(OCc1ccccc1)*; OcHex = C1CCC(O*)CC1; Bz = O=C(c1ccccc1)*; OtBu = CC(C)(C)O*; OAll = C=CCO*; X1 = C#CCO*

Regarding `COC(=O)CC[C@H](NC(=O)[C@H](CC(C)C)NC(=O)[C@@H]1CCCN1C(=O)OCc1ccccc1)C(=O)OC(C)(C)C` [Compound 30, 1-(tert-Butyl) 5-methyl ((benzyloxy)carbonyl)-L-prolyl-L-leucyl-L-glutamate] (Cbz-Pro-Leu-Glu(OMe)-OtBu), in test [1], the activity at 50 µM is greater than 100%.
As to `CC(C)C[C@H](NC(=O)[C@@H]1CCCN1C(=O)c1ccccc1)C(=O)N[C@@H](CCC(=O)OC(C)(C)C)C(=O)N[C@H](C(N)=O)C(C)C` [Compound 13a, tert-Butyl (S)-5-(((S)-1-amino-3-methyl-1-oxobutan-2-yl)amino)-4-((S)-2-((S)-1-benzoylpyrrolidine-2-carboxamido)-4-methylpentanamido)-5-oxopentanoate] (Bz-PLE(OtBu)V-NH2), the “Inhibitory activity against FGF14:Nav1.6 complex assembly (in words)” value (shortened to “Inhibitory activity”) in test [1] is given as “did not show any inhibitory activity”.
On to `CC(C)C[C@H](NC(=O)[C@@H]1CCCN1C(=O)C12CC3CC(CC(C3)C1)C2)C(=O)N[C@@H](CCC(=O)OC(C)(C)C)C(=O)N[C@H](C(=O)OC1CCCCC1)C(C)C` [Compound 23e, tert-Butyl (4S)-4-((2S)-2-((2S)-1-((1R,3R)-adamantane-1-carbonyl)pyrrolidine-2-carboxamido)-4-methylpentanamido)-5-(((S)-1-(cyclohexyloxy)-3-methyl-1-oxobutan-2-yl)amino)-5-oxopentanoate] (Adamantane1carbonyl-PLE(OtBu)V-OcHex), for which, in test [2], the koff is 0.0139 s⁻¹ and the association rate constant (kon) worked out at 7350 M⁻¹ s⁻¹.
With `CC(C)C[C@H](NC(=O)[C@@H]1CCCN1C(=O)C12CC3CC(CC(C3)C1)C2)C(=O)N[C@@H](CCC(=O)OC(C)(C)C)C(=O)N[C@H](C(=O)OC(C)(C)C)C(C)C` [Compound 23d, tert-Butyl (4S)-4-((2S)-2-((2S)-1-((1R,3R)-adamantane-1-carbonyl)pyrrolidine-2-carboxamido)-4-methylpentanamido)-5-(((S)-1-(tert-butoxy)-3-methyl-1-oxobutan-2-yl)amino)-5-oxopentanoate] (Adamantane1carbonyl-PLE(OtBu)V-OtBu), in test [2], the koff is 0.0058 s⁻¹ and the kon came to 1620 M⁻¹ s⁻¹.
On to `COC(=O)[C@@H](NC(=O)[C@H](CCC(=O)OC(C)(C)C)NC(=O)[C@H](CC(C)C)NC(=O)[C@@H]1CCCN1C(=O)OCC1c2ccccc2-c2ccccc21)C(C)C` [Compound 21b, (9H-Fluoren-9-yl)methyl (S)-2-(((S)-1-(((S)-5-(tert-butoxy)-1-(((S)-1-methoxy-3-methyl-1-oxobutan-2-yl)amino)-1,5-dioxopentan-2-yl)amino)-4-methyl-1-oxopentan-2-yl)carbamoyl)pyrrolidine-1-carboxylate] (Fmoc-PLE(OtBu)V-OMe), for which the “Inhibitory activity” value in test [1] was “markedly reduced inhibitory activity”.
In the case of `CC(C)C[C@H](NC(=O)[C@@H]1CCCN1C(=O)c1ccc(F)cc1)C(=O)N[C@@H](CCC(=O)OC(C)(C)C)C(=O)N[C@H](C(N)=O)C(C)C` [Compound 13f, tert-Butyl (S)-5-(((S)-1-amino-3-methyl-1-oxobutan-2-yl)amino)-4-((S)-2-((S)-1-(4-fluorobenzoyl)pyrrolidine-2-carboxamido)-4-methylpentanamido)-5-oxopentanoate] ({Benzoyl(4-F)}-PLE(OtBu)V-NH2), in test [1], the “Inhibitory activity” value is given as “did not show any inhibitory activity” and the activity at 50 µM came out at 123 ± 3%.
On to `C#CCOC(=O)[C@@H](NC(=O)[C@H](CCC(=O)OC(C)(C)C)NC(=O)[C@H](CC(C)C)NC(=O)[C@@H]1CCCN1C(=O)C12CC3CC(CC(C3)C1)C2)C(C)C` [Compound 23b, tert-Butyl (4S)-4-((2S)-2-((2S)-1-((1R,3R)-adamantane-1-carbonyl)pyrrolidine-2-carboxamido)-4-methylpentanamido)-5-(((S)-3-methyl-1-oxo-1-(prop-2-yn-1-yloxy)butan-2-yl)amino)-5-oxopentanoate] (Adamantane1carbonyl-PLE(OtBu)V-X1), for which the kon in test [2] was found to be 25800 M⁻¹ s⁻¹.
In the case of `C=CCOC(=O)[C@@H](NC(=O)[C@H](CCC(=O)OC(C)(C)C)NC(=O)[C@H](CC(C)C)NC(=O)[C@@H]1CCCN1C(=O)OCc1ccccc1)C(C)C` [Compound 19k, Benzyl (S)-2-(((S)-1-(((S)-1-(((S)-1-(allyloxy)-3-methyl-1-oxobutan-2-yl)amino)-5-(tert-butoxy)-1,5-dioxopentan-2-yl)amino)-4-methyl-1-oxopentan-2-yl)carbamoyl)pyrrolidine-1-carboxylate] (Cbz-PLE(OtBu)V-OAll), the “Binding by PTS and SPR (in words)” value in test [2] (PTS and SPR) is “negligible binding”.
On to `CC(C)C[C@H](NC(=O)[C@@H]1CCCN1C(=O)OCc1ccccc1)C(=O)N[C@@H](CCC(=O)OC(C)(C)C)C(=O)N[C@H](C(=O)N1CCCC1)C(C)C` [Compound 19e, Benzyl (S)-2-(((S)-1-(((S)-5-(tert-butoxy)-1-(((S)-3-methyl-1-oxo-1-(pyrrolidin-1-yl)butan-2-yl)amino)-1,5-dioxopentan-2-yl)amino)-4-methyl-1-oxopentan-2-yl)carbamoyl)pyrrolidine-1-carboxylate] (Cbz-PLE(OtBu)V-Pyrrolidide), for which, in test [2], the koff was 0.000991 s⁻¹ and the kon was determined as 461 M⁻¹ s⁻¹.

B1: compound 21a (peptide)
peptide: Adamantane1carbonyl-PLE(OtBu)V-OMe
SMILES: COC(=O)[C@@H](NC(=O)[C@H](CCC(=O)OC(C)(C)C)NC(=O)[C@H](CC(C)C)NC(=O)[C@@H]1CCCN1C(=O)C12CC3CC(CC(C3)C1)C2)C(C)C
In test [3], B1 yielded a half-inhibitory concentration (IC50) of 20.4 µM and an efficacy (percent inhibition at the bottom plateau) of 96.1%.
Take Adamantane1carbonyl-PLE(OtBu)V-{O‑allyl} [compound 23a]: in test [3], the IC50 was 11.5 µM and the efficacy (percent inhibition at the bottom plateau) came out at 95.5%.
On the same counts, the results for Adamantane1carbonyl-PLE(OtBu)V-{O‑cyclohexyl} [compound 23e] are 35.3 µM and 69.9%.
In test [3], Adamantane1carbonyl-PLE(OtBu)V-{O‑propargyl} [compound 23b] showed an IC50 of 13.8 µM and an efficacy (percent inhibition at the bottom plateau) of 96.6%.

B2: compound 23f (peptide)
peptide: Adamantane1carbonyl-PLE(OtBu)V-OEt
SMILES: CCOC(=O)[C@@H](NC(=O)[C@H](CCC(=O)OC(C)(C)C)NC(=O)[C@H](CC(C)C)NC(=O)[C@@H]1CCCN1C(=O)C12CC3CC(CC(C3)C1)C2)C(C)C
Take B2: in test [3], the IC50 was found to be 13.3 µM and the efficacy (percent inhibition at the bottom plateau) amounted to 82.3%.
Consider Adamantane1carbonyl-PLE(OtBu)V-{O‑propyl} [compound 23g], for which, in test [3], the IC50 is 22.5 µM and the efficacy (percent inhibition at the bottom plateau) was 83.3%.

B3: compound 23d (peptide)
peptide: Adamantane1carbonyl-PLE(OtBu)V-OtBu
SMILES: CC(C)C[C@H](NC(=O)[C@@H]1CCCN1C(=O)C12CC3CC(CC(C3)C1)C2)C(=O)N[C@@H](CCC(=O)OC(C)(C)C)C(=O)N[C@H](C(=O)OC(C)(C)C)C(C)C
In the case of B3, in test [3], the IC50 came to 33.9 µM and the efficacy (percent inhibition at the bottom plateau) was 92.1%.

For orientation: koff means a measure of how fast the partners let go of each other. In general, kon refers to the rate constant with which the complex forms. One may read the IC50 as the concentration needed to halve the response being measured. Higher therefore signals weaker potency.
